Assay results published in patent US20230106247A1 (L AND L BIO CO LTD NINGBO CHINA, published 2023).

Tests used:
[1] = target: T1, human PD-1 (recombinant, hFc/his tag) (human, UniProt Q15116 21-167); assay: blocking ELISA, competitor PD-L1
T1 construct: not shown: hFc or his tag
Procedure: (§1) The antigens PD-1 and Sirpα expressed according to the method of Example 1 were diluted with a PBS buffer at pH7.4 to a concentration of 2 μg/mL, added into a 96-well ELISA plate (Corning, CLS3590-100EA) at a volume of 50 μL/well, and incubated at 37° C. for 2 hours. After the liquid was discarded, the wells were added with a blocking solution of 5% skimmed milk (Sangon Biotech (Shanghai) Co., Ltd., A600669-0250) formulated with PBS at 200 μL/well, and incubated at 37° C. for 3 hours for blocking. […] The plate was washed with PBST for 5 times, added with 50 μL/well of HRP-labeled secondary antibody (GenScript Biotechnology Co., Ltd., M00091) diluted at 1:1000, and incubated at 37° C. for 1 hour. The plated was washed with PBST for 5 times, then added with 50 μl/well of TMB chromogenic substrate (KPL, 52-00-03), incubated at room temperature for 5-10 min, added with 50 μl/well of 1 M H₂SO₄ to stop the reaction, and read by a […] Go microplate reader (ThermoFisher, 51119200) for the absorbance value at 450 nm, and then IC₅₀ was calculated according to the OD value.

human Sirpα-V1-his [2] = target: T2, human Sirpα-V1-his (human, UniProt P78324 31-373); assay: blocking ELISA, competitor CD47-hFc
T2 construct: range 31-373; Bought (Sino Biological 11612-H08H) or expressed in-house; also called hSirpα-V1; hSirpα-V1-his
Procedure: as §1

human Sirpα-V1-his [3] = target: T2, human Sirpα-V1-his; assay: ELISA
Procedure: (§2) The self-expressed human PD-1, Sirpα and the like antigens of the present disclosure were diluted with a PBS buffer at pH7.4 to a concentration of 2 μg/mL according to different assays, and then added into a 96-well ELISA plate (Corning, CLS3590-100EA) at a volume of 50 μL/well, and placed in an incubator at 37° C. for 2 hours. After the liquid was discarded, the wells were added with a blocking solution of 5% skimmed milk (Sangon Biotech (Shanghai) Co., Ltd., A600669-0250) diluted with PBS at 200 μL/well, and incubated in an incubator at 37° C. for 3 hours, or placed overnight at 4° C. (for 16-18 hours) for blocking. The blocking solution was discarded, and the plate was washed with a PBST buffer (pH7.4 PBS containing 0.05% tween-20) for 5 times, then added with 50 μL/well of 5-fold serial dilution of the antibody to be tested in 1% BSA, and incubated at 37° C. for 1 hour. […] The plated was washed with PBST for 5 times, then added with 50 μL/well of TMB chromogenic substrate (KPL, 52-00-03), incubated at room temperature for 5-10 min, added with 50 μL/well of 1 M H₂SO₄ to stop the reaction, and read by a […] Go microplate reader (ThermoFisher, 51119200) for the absorbance value at 450 nm, and then EC₅₀ was calculated according to the OD value.
(§3) The aforementioned bispecific antibodies were cloned, expressed and purified according to the cloning, expression and purification methods of Example 1 of the present disclosure.

[4] = target: T1, human PD-1 (recombinant, hFc/his tag); assay: ELISA
Procedure: as §2, §3

human Sirpα-V1-hFc = target: T3, human Sirpα-V1-hFc (human, UniProt P78324 31-373); assay: blocking ELISA, competitor CD47-his
T3 construct: range 31-373; also called hSirpα (dimer); hSirpα-V1-hFc (dimer); not shown: human IgG1 Fc region at the C-terminus
Procedure: as §1

Binder	IC50 [1] [nM]	IC50 (human Sirpα-V1-his [2]) [nM]	EC50 (human Sirpα-V1-his [3]) [nM]	EC50 [4] [nM]	IC50 (human Sirpα-V1-hFc) [nM]
bispecific antibody LB501 (bispecific antibody, human IgG4 S228P, kappa, mab14-h16 scFv at the N-terminus of the Pem light chain) light: DIQMTQSPSSLSASVGDRVTITCRASQDIRNYLNWYQQKPGKAPKLLIYFTSTLHSGVPSRFSGSGSGTDFTLTISSLQPEDFATYYCQQGNTLPWTFGGGTKVEIKGGGGSGGGGSGGGGSQVQLVQSGAEVKKPGASVKVSCKASGYNFNIYWINWVRQAPGQGLEWIGNIYPSSISTNYNEKFKTRATLTVDKSTSTVYMELSSLRSEDTAVYYCARSEGTYYGGRYEGDWFGYWGQGTLVTVSSGGGGSGGGGSGGGGSEIVLTQSPATLSLSPGERATLSCRASKGVSTSGYSYLHWYQQKPGQAPRLLIYLASYLESGVPARFSGSGSGTDFTLTISSLEPEDFAVYYCQHSRDLPLTFGGGTKVEIKRTVAAPSVFIFPPSDEQLKSGTASVVCLLNNFYPREAKVQWKVDNALQSGNSQESVTEQDSKDSTYSLSSTLTLSKADYEKHKVYACEVTHQGLSSPVTKSFNRGEC heavy: not shown	1.3	5.42	0.059	0.075	2.55
bispecific antibody LB502 (bispecific antibody, human IgG4 S228P, kappa, mab14-h16 scFv at the N-terminus of the Pem heavy chain) light: EIVLTQSPATLSLSPGERATLSCRASKGVSTSGYSYLHWYQQKPGQAPRLLIYLASYLESGVPARFSGSGSGTDFTLTISSLEPEDFAVYYCQHSRDLPLTFGGGTKVEIKRTVAAPSVFIFPPSDEQLKSGTASVVCLLNNFYPREAKVQWKVDNALQSGNSQESVTEQDSKDSTYSLSSTLTLSKADYEKHKVYACEVTHQGLSSPVTKSFNRGEC heavy: not shown	2	5.37	0.066	0.074	3.78
bispecific antibody LB503 (bispecific antibody, human IgG4 S228P, kappa, mab14-h16 scFv at the C-terminus of the Pem light chain) light: EIVLTQSPATLSLSPGERATLSCRASKGVSTSGYSYLHWYQQKPGQAPRLLIYLASYLESGVPARFSGSGSGTDFTLTISSLEPEDFAVYYCQHSRDLPLTFGGGTKVEIKRTVAAPSVFIFPPSDEQLKSGTASVVCLLNNFYPREAKVQWKVDNALQSGNSQESVTEQDSKDSTYSLSSTLTLSKADYEKHKVYACEVTHQGLSSPVTKSFNRGECAGGGGSGGGGSGGGGSQVQLVQSGAEVKKPGASVKVSCKASGYNFNIYWINWVRQAPGQGLEWIGNIYPSSISTNYNEKFKTRATLTVDKSTSTVYMELSSLRSEDTAVYYCARSEGTYYGGRYEGDWFGYWGQGTLVTVSSGGGGSGGGGSGGGGSDIQMTQSPSSLSASVGDRVTITCRASQDIRNYLNWYQQKPGKAPKLLIYFTSTLHSGVPSRFSGSGSGTDFTLTISSLQPEDFATYYCQQGNTLPWTFGGGTKVEIK heavy: not shown	1.45	7.63	0.075	0.063	4.8
bispecific antibody LB504 (bispecific antibody, human IgG4 S228P, kappa, mab14-h16 scFv at the C-terminus of the Pem heavy chain) light: EIVLTQSPATLSLSPGERATLSCRASKGVSTSGYSYLHWYQQKPGQAPRLLIYLASYLESGVPARFSGSGSGTDFTLTISSLEPEDFAVYYCQHSRDLPLTFGGGTKVEIKRTVAAPSVFIFPPSDEQLKSGTASVVCLLNNFYPREAKVQWKVDNALQSGNSQESVTEQDSKDSTYSLSSTLTLSKADYEKHKVYACEVTHQGLSSPVTKSFNRGEC heavy: not shown	1.09	6.63	0.055	0.061	4.62
